# Assay results from patent publication US20250320312A1 (OXITOPE PHARMA B V, published 2025).
# Residue numbers refer to the chain shown, from its start.
# T1: Peptide 4: Biotin-AGGGGSGGGGSGGGGSAAA-Tyr-acid (N-terminal biotin; C-terminal acid)
# T1 construct: control peptide without PC
# T1 peptide: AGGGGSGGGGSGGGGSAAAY
# T2: Peptide 8: Biotin-AEAAAKEAAAKEAAAKEAAAKAAA-Tyr-acid (N-terminal biotin; C-terminal acid)
# T2 construct: control peptide without PC
# T2 peptide: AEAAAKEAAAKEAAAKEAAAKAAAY
# B1: PcOxP_DB01_B07 (scFv, V domains shown)
# VH: EVQLLESGGGLVQPGGSLRLSCAASGFTFSDYYMEWVRQAPGKGLEWVAASRNKANDYTTEYADSVKGRFTISRDNSKNTLYLQMNSLRAEDTAVYYCARDYYGSSYWYFDVWGQGTLVTVSS
# VL: DIQMTQSPSSLSASVGDRVTITCTASESLYSSKHKVHYLAWYQQKPGKAPKLLIYGASNRYIGVPSRFSGSGSGTDFTLTISSLQPEDFATYYCAQFYSYPLTFGGGTKVEIK
# notes: scFv in periplasmic extract
# B2: PcOxP_DB01_F10 (scFv, V domains shown)
# VH: B1 VH with D31S
# VL: B1 VL with R60G, S99T
# notes: scFv in periplasmic extract
# B3: PcOxP_DB01_D05 (scFv, V domains shown)
# VH: B1 VH with Y32G, S106P
# VL: B1 VL with I62V
# notes: scFv in periplasmic extract
# B4: PcOxP_DB01_B11 (scFv, V domains shown)
# VH: B1 VH with S30E, Y32F, Y103F
# VL: B1 VL with I62H
# notes: scFv in periplasmic extract
# B5: PcOxP_DB01_A12 (scFv, V domains shown)
# VH: B1 VH with T28G, Y32F, A55W, F110Y
# VL: B1 VL with Y61E, A95Q
# notes: scFv in periplasmic extract
# B6: PcOxP_DB01_B04 (scFv, V domains shown)
# VH: B1 VH with Y32G
# VL: B1 VL
# notes: scFv in periplasmic extract
# B7: PcOxP_DB01_D09 (scFv, V domains shown)
# VH: B1 VH with F29E, Y32F
# VL: B1 VL with S32A, A57S, S99D
# notes: scFv in periplasmic extract
# B8: PcOxP_DB01_G09 (scFv, V domains shown)
# VH: B1 VH with D57T
# VL: B1 VL with R60L, I62S
# notes: scFv in periplasmic extract
# B9: PcOxP_DB01_B05 (scFv, V domains shown)
# VH: B1 VH with F29A, Y32F, A55W
# VL: B1 VL with N59S, R60L, Y61Q
# notes: scFv in periplasmic extract
# B10: PcOxP_DB01_C05 (scFv, V domains shown)
# VH: B1 VH with Y32G
# VL: B1 VL with A57S, S99A
# notes: scFv in periplasmic extract
# B11: PcOxP_DB01_C06 (scFv, V domains shown)
# VH: B1 VH with T28E, Y32N
# VL: B1 VL with Y61F, S99Y
# notes: scFv in periplasmic extract
# B12: PcOxP_DB01_D02 (scFv, V domains shown)
# VH: B1 VH with T28E, Y32F, N53G, A55G, D57S
# VL: B1 VL with A95G
# notes: scFv in periplasmic extract
# B13: PcOxP_DB01_E11 (scFv, V domains shown)
# VH: B1 VH with Y32F, T59V
# VL: B1 VL with E27F, I62P, S99Y
# notes: scFv in periplasmic extract
# B14: PcOxP_DB01_C08 (scFv, V domains shown)
# VH: B1 VH with Y32G, G104A
# VL: B1 VL with T24R, L29I, Y30S, H34N, I62Y
# notes: scFv in periplasmic extract
# B15: PcOxP_DB01_F04 (scFv, V domains shown)
# VH: B1 VH with D31S, A55Y
# VL: B1 VL with S58V, S99R
# notes: scFv in periplasmic extract
# B16: PcOxP_DB01_E06 (scFv, V domains shown)
# VH: B1 VH with Y32Q, V112L
# VL: B1 VL with L39V, S99Y
# notes: scFv in periplasmic extract
# B17: PcOxP_DB01_E04 (scFv, V domains shown)
# VH: B1 VH with Y32A, V112T
# VL: B1 VL with I62D
# notes: scFv in periplasmic extract
# B18: PcOxP_DB01_G11 (scFv, V domains shown)
# VH: B1 VH with Y32G, A55N, Y103F
# VL: B1 VL
# notes: scFv in periplasmic extract
# B19: PcOxP_DB01_D08 (scFv, V domains shown)
# VH: B1 VH with Y32A, V112S
# VL: B1 VL
# notes: scFv in periplasmic extract
# B20: PcOxP_DB01_G01 (scFv, V domains shown)
# VH: B1 VH with F29G, Y32F, A55G, D57S
# VL: B1 VL with S31G, I62S
# notes: scFv in periplasmic extract
# B21: PcOxP_DB01_E05 (scFv, V domains shown)
# VH: B1 VH
# VL: B1 VL with H37N, S99Q
# notes: scFv in periplasmic extract
# B22: PcOxP_DB01_B09 (scFv, V domains shown)
# VH: B1 VH
# VL: B1 VL with I62T, S99H
# notes: scFv in periplasmic extract
# B23: PcOxP_DB01_C01 (scFv, V domains shown)
# VH: B1 VH with Y32F
# VL: B1 VL with T24V
# notes: scFv in periplasmic extract
# B24: PcOxP_DB01_A06 (scFv, V domains shown)
# VH: B1 VH
# VL: B1 VL with Q96E
# notes: scFv in periplasmic extract
# B25: PcOxP_DB01_C03 (scFv, V domains shown)
# VH: B1 VH with Y32Q
# VL: B1 VL with S99Q
# notes: scFv in periplasmic extract
# B26: PcOxP_DB01_C04 (scFv, V domains shown)
# VH: B1 VH with T28Q, Y32F
# VL: B1 VL with S99Y
# notes: scFv in periplasmic extract
# B27: PcOxP_DB01_B08 (scFv, V domains shown)
# VH: B1 VH with Y32S, E61S
# VL: B1 VL
# notes: scFv in periplasmic extract
# B28: PcOxP_DB01_B01 (scFv, V domains shown)
# VH: B1 VH with Y32Q, M34I, Y103L
# VL: B1 VL with N59H, S99A
# notes: scFv in periplasmic extract
# B29: PcOxP_DB01_C12 (scFv, V domains shown)
# VH: B1 VH with Y32F, Y62L
# VL: B1 VL with S58A, S99V
# notes: scFv in periplasmic extract
# Biological target: BSA (UniProt P02769)
# Sequence (P02769 25-607 limits assumed): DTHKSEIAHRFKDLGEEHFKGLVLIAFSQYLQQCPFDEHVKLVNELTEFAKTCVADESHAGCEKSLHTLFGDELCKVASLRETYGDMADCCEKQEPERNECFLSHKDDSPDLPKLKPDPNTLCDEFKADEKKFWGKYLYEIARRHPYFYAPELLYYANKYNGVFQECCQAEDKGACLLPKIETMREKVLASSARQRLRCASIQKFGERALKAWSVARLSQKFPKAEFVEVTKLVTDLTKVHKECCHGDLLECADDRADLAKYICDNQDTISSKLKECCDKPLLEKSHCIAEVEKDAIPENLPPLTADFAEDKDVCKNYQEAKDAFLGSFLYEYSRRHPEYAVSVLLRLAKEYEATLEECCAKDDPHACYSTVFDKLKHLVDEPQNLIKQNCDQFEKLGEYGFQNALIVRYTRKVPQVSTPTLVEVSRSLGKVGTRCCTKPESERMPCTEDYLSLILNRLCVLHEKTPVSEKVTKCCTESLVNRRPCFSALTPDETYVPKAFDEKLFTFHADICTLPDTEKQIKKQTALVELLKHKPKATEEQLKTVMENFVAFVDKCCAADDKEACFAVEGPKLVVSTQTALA
# Assay: scFv ELISA
row,OD450 [OD450],Binder
1,0.11,B1
2,0.09,B2
3,0.1,B3
4,0.09,B4
5,0.09,B5
6,0.08,B6
7,0.07,B7
8,0.11,B8
9,0.1,B9
10,0.11,B10
11,0.08,B11
12,0.09,B12
13,0.09,B13
14,0.1,B14
15,0.09,B15
16,0.09,B16
17,0.07,B17
18,0.09,B18
19,0.08,B19
20,0.09,B20
21,0.11,B21
22,0.1,B22
23,0.11,B23
24,0.1,B24
25,0.1,B25
26,0.08,B26
27,0.1,B27
28,0.1,B28
29,0.08,B29

# Biological target: Peptide 1: Biotin-…-[Tyr(PC)]-acid
# Assay: scFv ELISA
row,OD450 [OD450],Binder
1,1.07,B1
2,0.68,B2
3,0.87,B3
4,1.11,B4
5,0.29,B5
6,0.57,B6
7,0.27,B7
8,0.92,B8
9,0.23,B9
10,0.79,B10
11,1.18,B11
12,0.56,B12
13,0.62,B13
14,0.38,B14
15,0.36,B15
16,0.68,B16
17,0.55,B17
18,0.99,B18
19,0.58,B19
20,0.58,B20
21,0.95,B21
22,1,B22
23,0.71,B23
24,0.74,B24
25,0.98,B25
26,1.38,B26
27,0.41,B27
28,0.87,B28
29,0.88,B29

# Biological target: Peptide 5: Biotin-…-[Tyr(PC)]-acid
# Assay: scFv ELISA
row,OD450 [OD450],Binder
1,1.36,B1
2,0.98,B2
3,1.56,B3
4,1.32,B4
5,1.04,B5
6,1.02,B6
7,0.66,B7
8,1.4,B8
9,0.74,B9
10,1.11,B10
11,1.31,B11
12,1.27,B12
13,0.73,B13
14,0.79,B14
15,0.57,B15
16,1.05,B16
17,1.12,B17
18,1.32,B18
19,1.08,B19
20,1.33,B20
21,1.39,B21
22,1.42,B22
23,1.13,B23
24,1.18,B24
25,1.37,B25
26,1.42,B26
27,0.89,B27
28,0.9,B28
29,1.18,B29

# Biological target: T1, Peptide 4: …
# Assay: scFv ELISA
# Procedure: (§1) For ELISA analysis of scFv binding, 96-well polystyrene plates were coated with Peptide 1, 4, 5, 8 or 100 μL BSA (10 μg/mL) in PBS at 4° C. overnight. Plates were washed three times with PBS-Tween and blocked with 100 μL 1% BSA-TBS for 1 hour at room temperature. 96-well streptavidin coated plates were coated with 100 μL biotinylated PC-peptides (1 μg/mL) in PBS for 1 hour at room temperature.
# (§2) All plates were washed three times with PBS-Tween before 40 μL aliquots of PPE were added to assay plates along with 50 μL 10% BSA, and plates were incubated for 1 hour at room temperature. After washing, […] HRP conjugated anti-V5 in 5% BSA was added, and plates were incubated at room temperature for 30 mins. Plates were washed and 100 μL TMB substrate was added. Color was left to develop at room temperature before the reaction was stopped with 100 μL 1N HCl. The amount of scFv bound to each well was quantitated from absorbance measurement at 450 nm (OD450).
row,OD450 [OD450],Binder
1,0.06,B1
2,0.05,B2
3,0.06,B3
4,0.05,B4
5,0.06,B5
6,0.06,B6
7,0.05,B7
8,0.06,B8
9,0.05,B9
10,0.06,B10
11,0.05,B11
12,0.05,B12
13,0.05,B13
14,0.06,B14
15,0.05,B15
16,0.05,B16
17,0.05,B17
18,0.06,B18
19,0.05,B19
20,0.06,B20
21,0.06,B21
22,0.05,B22
23,0.06,B23
24,0.06,B24
25,0.06,B25
26,0.05,B26
27,0.06,B27
28,0.07,B28
29,0.05,B29

# Biological target: T2, Peptide 8: …
# Assay: scFv ELISA
# Procedure: as §1, §2
row,OD450 [OD450],Binder
1,0.05,B1
2,0.05,B2
3,0.05,B3
4,0.04,B4
5,0.05,B5
6,0.05,B6
7,0.05,B7
8,0.05,B8
9,0.05,B9
10,0.06,B10
11,0.05,B11
12,0.05,B12
13,0.06,B13
14,0.05,B14
15,0.05,B15
16,0.05,B16
17,0.04,B17
18,0.06,B18
19,0.05,B19
20,0.05,B20
21,0.06,B21
22,0.05,B22
23,0.05,B23
24,0.06,B24
25,0.05,B25
26,0.05,B26
27,0.05,B27
28,0.05,B28
29,0.05,B29
